Measured values taken from patent US20230192890A1.

T1: Ala mutant SEQ ID NO: 27 (human)
T1 sequence (peptide): AENMDDQWMQDEMEIGY

T2: Ala mutant SEQ ID NO: 28 (human)
T2 sequence (peptide): EANMDDQWMQDEMEIGY

T3: Ala mutant SEQ ID NO: 29 (human)
T3 sequence (peptide): EEAMDDQWMQDEMEIGY

T4: Ala mutant SEQ ID NO: 30 (human)
T4 sequence (peptide): EENADDQWMQDEMEIGY

T5: Ala mutant SEQ ID NO: 31 (human)
T5 sequence (peptide): EENMADQWMQDEMEIGY

T6: Ala mutant SEQ ID NO: 33 (human)
T6 sequence (peptide): EENMDDAWMQDEMEIGY

T7: Ala mutant SEQ ID NO: 36 (human)
T7 sequence (peptide): EENMDDQWMADEMEIGY

T8: Ala mutant SEQ ID NO: 37 (human)
T8 sequence (peptide): EENMDDQWMQAEMEIGY

T9: Ala mutant SEQ ID NO: 38 (human)
T9 sequence (peptide): EENMDDQWMQDAMEIGY

T10: Ala mutant SEQ ID NO: 39 (human)
T10 sequence (peptide): EENMDDQWMQDEAEIGY

T11: Ala mutant SEQ ID NO: 40 (human)
T11 sequence (peptide): EENMDDQWMQDEMAIGY

T12: Ala mutant SEQ ID NO: 41 (human)
T12 sequence (peptide): EENMDDQWMQDEMEAGY

T13: Ala mutant SEQ ID NO: 42 (human)
T13 sequence (peptide): EENMDDQWMQDEMEIAY

T14: Ala mutant SEQ ID NO: 43 (human)
T14 sequence (peptide): EENMDDQWMQDEMEIGA

T15: Ala mutant having 3-amino acid substitution, SEQ ID NO: 44 (human)
T15 sequence (peptide): AAAMDDQWMQDEMEIGY

T16: Ala mutant having 3-amino acid substitution, SEQ ID NO: 46 (human)
T16 sequence (peptide): EENMDDAAAQDEMEIGY

T17: Ala mutant having 3-amino acid substitution, SEQ ID NO: 47 (human)
T17 sequence (peptide): EENMDDQWMAAAMEIGY

T18: Ala mutant having 3-amino acid substitution, SEQ ID NO: 48 (human)
T18 sequence (peptide): EENMDDQWMQDEAAAGY

T19: Ala mutant having 3-amino acid substitution, SEQ ID NO: 49 (human)
T19 sequence (peptide): EENMDDQWMQDEMEIAA

T20: TA0096 (peptide antigen corresponding to positions 340 to 356 of PAD4) (human)
T20 sequence (peptide): EENMDDQWMQDEMEIGY

B1: G8 (antibody, IgG1, V domains shown)
VH: AVTLDESGGGLQTPGGALSLVCKASGFTFSTYAMGWMRQAPGKGLEYVAAIRNDGSWTGYGAAVKGRATILRDNGQSTVRLQLSNLRAEDTGTYYCAKYTGSSGGSIGAWGHGTEVIVS
VL: ASTQPSSVSANLGGTVEITCSGGNRNYYYGWYQQKSPGSAPVTLIYANDKRPSNIPSRFSGSKSGSTGTLTITGVQAEDEAVYFCGTADTGKYVFGAGTTLTVL
B2: H7 (antibody, IgG1, V domains shown)
VH: B1 VH
VL: ASTQPSSVSANPGGTVEITCSGGSGRYYYGWYQQKSPGSAPVTVIYSSTHRPSNIPSRFSGSKSGSTATLTITGVQAEDEAVYFCGTADSSSYVFGAGTTLTVL

molecular target: T1, Ala mutant SEQ ID NO: 27 (human); experiment: ELISA, peptide on plate (10 ug/mL)

Binder | absorbance 490 nm/630 nm
B1 | 1.96 OD
B2 | 1.9 OD

molecular target: T2, Ala mutant SEQ ID NO: 28 (human); experiment: ELISA, peptide on plate (10 ug/mL)

Binder | absorbance 490 nm/630 nm
B1 | 1.94 OD
B2 | 1.95 OD

molecular target: T3, Ala mutant SEQ ID NO: 29 (human); experiment: ELISA, peptide on plate (10 ug/mL)

Binder | absorbance 490 nm/630 nm
B1 | 1.91 OD
B2 | 1.9 OD

molecular target: T4, Ala mutant SEQ ID NO: 30 (human); experiment: ELISA, peptide on plate (10 ug/mL)

Binder | absorbance 490 nm/630 nm
B1 | 1.93 OD
B2 | 1.95 OD

molecular target: T5, Ala mutant SEQ ID NO: 31 (human); experiment: ELISA, peptide on plate (10 ug/mL)

Binder | absorbance 490 nm/630 nm
B1 | 1.85 OD
B2 | 0.462 OD

molecular target: T6, Ala mutant SEQ ID NO: 33 (human); experiment: ELISA, peptide on plate (10 ug/mL)

Binder | absorbance 490 nm/630 nm
B1 | 1.98 OD
B2 | 1.87 OD

molecular target: T7, Ala mutant SEQ ID NO: 36 (human); experiment: ELISA, peptide on plate (10 ug/mL)

Binder | absorbance 490 nm/630 nm
B1 | 1.92 OD
B2 | 1.87 OD

molecular target: T8, Ala mutant SEQ ID NO: 37 (human); experiment: ELISA, peptide on plate (10 ug/mL)

Binder | absorbance 490 nm/630 nm
B1 | 1.88 OD
B2 | 1.86 OD

molecular target: T9, Ala mutant SEQ ID NO: 38 (human); experiment: ELISA, peptide on plate (10 ug/mL)

Binder | absorbance 490 nm/630 nm
B1 | 1.91 OD
B2 | 1.99 OD

molecular target: T10, Ala mutant SEQ ID NO: 39 (human); experiment: ELISA, peptide on plate (10 ug/mL)

Binder | absorbance 490 nm/630 nm
B1 | 1.88 OD
B2 | 1.81 OD

molecular target: T11, Ala mutant SEQ ID NO: 40 (human); experiment: ELISA, peptide on plate (10 ug/mL)

Binder | absorbance 490 nm/630 nm
B1 | 1.89 OD
B2 | 1.86 OD

molecular target: T12, Ala mutant SEQ ID NO: 41 (human); experiment: ELISA, peptide on plate (10 ug/mL)

Binder | absorbance 490 nm/630 nm
B1 | 1.85 OD
B2 | 1.83 OD

molecular target: T13, Ala mutant SEQ ID NO: 42 (human); experiment: ELISA, peptide on plate (10 ug/mL)

Binder | absorbance 490 nm/630 nm
B1 | 1.86 OD
B2 | 1.85 OD

molecular target: T14, Ala mutant SEQ ID NO: 43 (human); experiment: ELISA, peptide on plate (10 ug/mL)

Binder | absorbance 490 nm/630 nm
B1 | 1.92 OD
B2 | 1.87 OD

molecular target: T15, Ala mutant having 3-amino acid substitution, SEQ ID NO: 44 (human); experiment: ELISA, peptide on plate (10 ug/mL)

Binder | absorbance 490 nm/630 nm
B1 | 1.9 OD
B2 | 1.9 OD

molecular target: T16, Ala mutant having 3-amino acid substitution, SEQ ID NO: 46 (human); experiment: ELISA, peptide on plate (10 ug/mL)

Binder | absorbance 490 nm/630 nm
B1 | 0.178 OD

molecular target: T17, Ala mutant having 3-amino acid substitution, SEQ ID NO: 47 (human); experiment: ELISA, peptide on plate (10 ug/mL)

Binder | absorbance 490 nm/630 nm
B1 | 1.86 OD
B2 | 1.67 OD

molecular target: T18, Ala mutant having 3-amino acid substitution, SEQ ID NO: 48 (human); experiment: ELISA, peptide on plate (10 ug/mL)

Binder | absorbance 490 nm/630 nm
B1 | 1.88 OD
B2 | 1.87 OD

molecular target: T19, Ala mutant having 3-amino acid substitution, SEQ ID NO: 49 (human); experiment: ELISA, peptide on plate (10 ug/mL)

Binder | absorbance 490 nm/630 nm
B1 | 1.86 OD
B2 | 1.86 OD

molecular target: T20, TA0096 (peptide antigen corresponding to positions 340 to 356 of PAD4) (human); experiment: ELISA, peptide on plate (10 ug/mL)

Binder | absorbance 490 nm/630 nm
B1 | 1.88 OD
B2 | 1.82 OD

molecular target: full-length recombinant mouse PAD4 (mouse) (UniProt Q9Z183); experiment: ELISA, mouse PAD4 on plate, antibody 1 ug/mL
Sequence (Q9Z183 whole entry): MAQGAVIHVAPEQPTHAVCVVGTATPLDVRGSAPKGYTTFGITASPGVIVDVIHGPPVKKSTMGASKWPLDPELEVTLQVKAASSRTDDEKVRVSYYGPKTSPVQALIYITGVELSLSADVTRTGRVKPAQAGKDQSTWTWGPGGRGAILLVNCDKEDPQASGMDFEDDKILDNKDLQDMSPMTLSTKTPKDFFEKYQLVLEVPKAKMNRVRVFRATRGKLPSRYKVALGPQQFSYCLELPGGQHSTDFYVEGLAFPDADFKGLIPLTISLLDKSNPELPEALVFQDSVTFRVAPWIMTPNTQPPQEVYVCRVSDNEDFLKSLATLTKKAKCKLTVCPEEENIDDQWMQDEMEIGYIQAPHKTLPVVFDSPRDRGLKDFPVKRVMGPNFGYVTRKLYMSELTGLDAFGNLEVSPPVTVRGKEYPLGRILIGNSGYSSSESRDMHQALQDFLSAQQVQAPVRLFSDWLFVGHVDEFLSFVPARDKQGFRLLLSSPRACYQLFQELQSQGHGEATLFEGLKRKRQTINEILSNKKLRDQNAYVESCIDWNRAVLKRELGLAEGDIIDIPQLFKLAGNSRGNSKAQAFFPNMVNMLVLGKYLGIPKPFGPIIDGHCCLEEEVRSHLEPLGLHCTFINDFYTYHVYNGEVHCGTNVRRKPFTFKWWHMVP

Binder | absorbance 490 nm/630 nm
B1 | 2.26 OD
B2 | 2.3 OD

molecular target: full-length recombinant mouse PAD4 (mouse) (UniProt Q9Z183); experiment: ELISA, mouse PAD4 on plate, antibody 0.25 ug/mL

Binder | absorbance 490 nm/630 nm
B1 | 2.25 OD
B2 | 2.31 OD

molecular target: full-length recombinant mouse PAD4 (mouse) (UniProt Q9Z183); experiment: ELISA, mouse PAD4 on plate, antibody 0.0625 ug/mL

Binder | absorbance 490 nm/630 nm
B1 | 2.22 OD
B2 | 2.29 OD

molecular target: full-length recombinant mouse PAD4 (mouse) (UniProt Q9Z183); experiment: ELISA, mouse PAD4 on plate, antibody 0.015625 ug/mL

Binder | absorbance 490 nm/630 nm
B1 | 2.25 OD
B2 | 2.26 OD

molecular target: full-length recombinant mouse PAD4 (mouse) (UniProt Q9Z183); experiment: ELISA, mouse PAD4 on plate, antibody 0.0002441 ug/mL

Binder | absorbance 490 nm/630 nm
B1 | 0.205 OD
B2 | 0.224 OD

molecular target: full-length recombinant mouse PAD4 (mouse) (UniProt Q9Z183); experiment: ELISA, mouse PAD4 on plate, antibody 0.0009766 ug/mL

Binder | absorbance 490 nm/630 nm
B1 | 0.555 OD
B2 | 0.55 OD

molecular target: full-length recombinant mouse PAD4 (mouse) (UniProt Q9Z183); experiment: ELISA, mouse PAD4 on plate, antibody 0.0039063 ug/mL

Binder | absorbance 490 nm/630 nm
B1 | 1.42 OD
B2 | 1.41 OD

molecular target: full-length recombinant mouse PAD4 (mouse) (UniProt Q9Z183); experiment: ELISA, mouse PAD4 on plate, antibody 6.104E-05 ug/mL

Binder | absorbance 490 nm/630 nm
B1 | 0.122 OD
B2 | 0.103 OD
